Columns and labels:
Assay in all cases: EMSA; strands added sequentially; Anisotropy: 50 mM Tris-HCl pH 7.5, 1 mM DTT, 0.1 mg/mL BSA, 10 nM FAM48, 23 °C (Kd per monomer); gel assay: 10 µM Redβ, 50 µM nt of each oligo, PBS, 37 °C, 1% agarose at 22 °C
Conditions in all cases: protein: recombinant; tags: 6xHis removed by thrombin; residual N-terminal GSH; label: 5'-Cy3 and 5'-Cy5; complementary 50-mers; annealed by protein
Redβ K258A = target: T1, Redβ K258A (bacteriophage λ, UniProt P03698 1-261, K258A)
T1 sequence: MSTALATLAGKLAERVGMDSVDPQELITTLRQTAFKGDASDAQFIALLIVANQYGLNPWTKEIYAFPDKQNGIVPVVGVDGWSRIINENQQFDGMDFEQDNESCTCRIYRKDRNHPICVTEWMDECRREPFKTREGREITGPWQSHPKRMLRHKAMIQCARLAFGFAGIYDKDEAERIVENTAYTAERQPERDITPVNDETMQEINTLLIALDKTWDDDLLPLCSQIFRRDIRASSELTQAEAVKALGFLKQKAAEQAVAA

Redβ K172A = target: T2, Redβ K172A (bacteriophage λ, UniProt P03698 1-261, K172A)
T2 sequence: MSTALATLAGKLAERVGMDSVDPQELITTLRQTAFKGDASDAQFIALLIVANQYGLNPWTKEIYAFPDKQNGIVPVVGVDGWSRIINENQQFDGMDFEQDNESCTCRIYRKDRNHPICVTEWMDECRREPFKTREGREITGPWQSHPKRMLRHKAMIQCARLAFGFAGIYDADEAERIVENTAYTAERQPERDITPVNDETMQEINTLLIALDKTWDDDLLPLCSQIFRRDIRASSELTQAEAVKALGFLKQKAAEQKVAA

Redβ K11A = target: T3, Redβ K11A (bacteriophage λ, UniProt P03698 1-261, K11A)
T3 sequence: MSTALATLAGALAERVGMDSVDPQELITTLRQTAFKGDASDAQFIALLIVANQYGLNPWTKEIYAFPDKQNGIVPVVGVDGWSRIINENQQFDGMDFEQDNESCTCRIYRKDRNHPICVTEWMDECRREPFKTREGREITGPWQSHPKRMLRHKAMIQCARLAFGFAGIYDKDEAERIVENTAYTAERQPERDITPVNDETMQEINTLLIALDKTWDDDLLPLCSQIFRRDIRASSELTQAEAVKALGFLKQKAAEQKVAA

Redβ K253A = target: T4, Redβ K253A (bacteriophage λ, UniProt P03698 1-261, K253A)
T4 sequence: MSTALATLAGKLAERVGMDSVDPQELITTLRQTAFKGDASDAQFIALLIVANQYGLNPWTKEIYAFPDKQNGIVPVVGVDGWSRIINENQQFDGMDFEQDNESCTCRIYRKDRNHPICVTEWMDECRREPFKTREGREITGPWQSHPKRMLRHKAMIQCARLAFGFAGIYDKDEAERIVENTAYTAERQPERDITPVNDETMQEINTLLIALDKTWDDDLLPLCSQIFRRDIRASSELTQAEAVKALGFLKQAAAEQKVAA

Redβ K245A = target: T5, Redβ K245A (bacteriophage λ, UniProt P03698 1-261, K245A)
T5 sequence: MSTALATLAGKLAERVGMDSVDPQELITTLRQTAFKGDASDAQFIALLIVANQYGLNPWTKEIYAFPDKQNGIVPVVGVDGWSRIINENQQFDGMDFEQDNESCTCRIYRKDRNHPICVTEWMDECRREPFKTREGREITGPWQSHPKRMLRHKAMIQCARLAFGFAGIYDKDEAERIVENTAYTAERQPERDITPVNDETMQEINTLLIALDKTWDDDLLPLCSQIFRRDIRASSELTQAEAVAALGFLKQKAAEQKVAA

Redβ K214A = target: T6, Redβ K214A (bacteriophage λ, UniProt P03698 1-261, K214A)
T6 sequence: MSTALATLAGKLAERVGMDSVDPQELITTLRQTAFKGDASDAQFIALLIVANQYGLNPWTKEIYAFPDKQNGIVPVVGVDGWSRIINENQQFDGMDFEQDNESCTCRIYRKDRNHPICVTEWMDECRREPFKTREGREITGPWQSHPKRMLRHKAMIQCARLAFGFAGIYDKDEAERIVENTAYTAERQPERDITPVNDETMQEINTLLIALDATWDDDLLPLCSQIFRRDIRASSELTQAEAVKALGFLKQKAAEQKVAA

B1: annealed duplex of Cy3 and Cy5 50-mers, strands added sequentially (dsDNA)
DNA 1: GCGGATGGCTTAGAGCAGAATCGCCCTGCATAGCTCGATTTTTGCGGATG
DNA 2: CCATCCGCAAAAATCGAGCTATGCAGGGCGATTCTGCTCTAAGCCATCCG
binding result (Redβ K258A): binds | binding result (Redβ K172A): no binding | binding result (Redβ K11A): binds | binding result (Redβ K253A): binds | binding result (Redβ K245A): binds | binding result (Redβ K214A): binds

— publication PMC8303780, “Mutational Analysis of Redβ Single Strand Annealing Protein: Roles of the 14 Lysine Residues in DNA Binding and Recombination In Vivo”
